In patent publication US20140227782A1 (UMUVERSIDAD DE VALLADOLID, published 2014):

Target: T1, Modified biopolymer 3' (biopolymer 3, 427 amino acids, structure D-B84, with amino groups transformed into … (amino groups of the lysines of peptide D transformed into azide groups (lysine transformation rate 50%); covalently grafted to alkynyl-functionalised glass by click cycloaddition)
T1 construct: In the assay it was grafted to a glass surface through 1,2,3-triazole links; also called POLYM; 3'
T1 chain: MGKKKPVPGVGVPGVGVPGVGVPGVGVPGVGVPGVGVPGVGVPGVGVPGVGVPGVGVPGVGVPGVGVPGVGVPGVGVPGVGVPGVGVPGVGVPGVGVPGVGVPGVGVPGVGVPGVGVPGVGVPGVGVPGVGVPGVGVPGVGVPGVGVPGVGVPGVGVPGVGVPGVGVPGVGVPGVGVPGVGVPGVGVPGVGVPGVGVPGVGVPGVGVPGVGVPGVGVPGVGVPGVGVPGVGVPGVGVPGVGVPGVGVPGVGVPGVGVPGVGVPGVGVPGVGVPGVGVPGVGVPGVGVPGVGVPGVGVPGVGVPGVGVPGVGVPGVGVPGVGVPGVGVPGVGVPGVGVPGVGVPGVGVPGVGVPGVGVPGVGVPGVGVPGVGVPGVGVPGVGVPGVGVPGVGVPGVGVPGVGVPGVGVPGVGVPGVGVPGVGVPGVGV
Test: ToF-SIMS of a glass surface grafted with polymer 3' after immersion in an aqueous solution of polymer 4

binding result: binds
B1: Biopolymer 4 (371 amino acids), structure B14-A2-B14 (other)
chain: MESLLPVPGVGVPGVGVPGVGVPGVGVPGVGVPGVGVPGVGVPGVGVPGVGVPGVGVPGVGVPGVGVPGVGVPGVGVPGIGVPGIGVPGIGVPGIGVPGIGVPGIGVPGIGVPGIGVPGIGVPGIGAVTGRGDSPASSVPGIGVPGIGVPGIGVPGIGVPGIGVPGIGVPGIGVPGIGVPGIGVPGIGVPGIGVPGIGVPGIGVPGIGVPGIGVPGIGVPGIGVPGIGVPGIGVPGIGAVTGRGDSPASSVPGIGVPGIGVPGIGVPGIGVPGIGVPGIGVPGIGVPGIGVPGIGVPGIGVPGVGVPGVGVPGVGVPGVGVPGVGVPGVGVPGVGVPGVGVPGVGVPGVGVPGVGVPGVGVPGVGVPGVGV
notes: Unmodified polymer 4, adsorbed from aqueous solution onto the surface grafted with polymer 3'; also called POLYM
